Reference: article PMC9036094, “Antigen-derived peptides engage the ER stress sensor IRE1α to curb dendritic cell cross-presentation” (The Journal of Cell Biology, 2022)
“Also recorded” adds a separate entry of the source.

Tested on: IRE1α (XBP1s, pIRE1α) in BMDCs
Assay: IRE1α activation in BMDCs (immunoblot)
Assay type: cell-based, mouse
Experimental: Figure 1. Antigen pulsing of BMDCs activates IRE1α. (A) BMDCs were pulsed with ovalbumin (starting at 62.5 μg/ml and sequentially doubled) and analyzed by immunoblot (IB) for the indicated markers. (B) BMDCs were pulsed with ovalbumin (starting at 500 μg/ml and sequentially halved) or […] (1 μM), or stimulated with tunicamycin (1 μg/ml) or poly-I:C (25 μg/ml) for 4 h, and analyzed by IB. (C) BMDCs were pulsed with ovalbumin (500 μg/ml) for indicated time points and analyzed by IB. (D) BMDCs were pulsed for 4 h with ovalbumin or lysates derived from the indicated cell lines (500 μg/ml protein) and analyzed by IB. […] (F) Upon removal from bone marrow, total bone marrow cells were transfected with non-targeting control (NTC) or TAP1-targeting gRNAs, along with CRISPR/Cas9 delivery constructs. Cells were then subjected to standard BMDC-differentiation protocol, pulsed with ovalbumin (500 μg/ml) for 4 h, and analyzed by IB. All IB images are representative of at least two similar experiments, and molecular weights represent kD. Source data are available for this figure: SourceData F1.
For purification and differentiation of BMDCs, the femur and tibia bones of C57BL/6 mice were flushed with sterile PBS, and bone marrow cells were then cultured in RPMI1640 media as described above and further supplemented with […] β2-mercaptoethanol (Sigma-Aldrich), 20 ng/ml GM-CSF (BioLegend), and 10 ng/ml IL-4 (BioLegend) for 9 d, with media being replenished every 3 d. Where indicated, Flt3L-BMDCs were similarly generated using media supplemented with 200 ng/ml recombinant mouse Flt3L (PeproTech; [Brasel et al., 2000]). After 9 d of culture, BMDCs were routinely verified to be >90% CD11c^+ MHC-II^high by flow cytometry analysis.
Thapsigargin (Sigma-Aldrich) was used at 100 nM, tunicamycin (Sigma-Aldrich) was used at 5 μg/ml, MG132 (Sigma-Aldrich) was used at 5 μM, Amiloride (Sigma-Aldrich) was used at 10 μM, actinomycin D (Sigma-Aldrich) was used at 4 μg/ml, LPS (Sigma-Aldrich) was used at 10 μg/ml, and poly-I:C (Sigma-Aldrich) was used at 25 μg/ml. Ovalbumin (Sigma-Aldrich), EF-OVA (EndoFit; InvivoGen), […] peptide (Sigma-Aldrich), and human CD4-Fc fusion protein (generated in-house at Genentech) were dissolved in PBS prior to pulsing and used at indicated concentrations.
Cells were lysed in PBS solution supplemented with 1X radioimmunoprecipitation assay buffer (Millipore) and 2X Halt protease-phosphatase inhibitor cocktail (Thermo Fisher Scientific). Upon clearance, samples were analyzed by SDS-PAGE, electrotransferred to nitrocellulose membranes (Invitrogen), and blocked by 5% powdered milk in PBSt (PBS supplemented with 0.1% tween) solution. Development was conducted with ECL reagent (Thermo Fisher Scientific) and imaging was performed with the ChemiDoc ZRS+ imager (Bio-Rad). Antibodies used for Western blot analysis include IRE1α (3294, rabbit; Cell Signaling Technology), β-actin (5125, rabbit; Cell Signaling), GAPDH (97166, mouse; Cell Signaling), ATF6 (66563-1-Ig, mouse; ProteinTech), TAP1 (12341, rabbit; Cell Signaling), CHOP (2895, mouse; Cell Signaling), ATF4 (11815, rabbit; Cell Signaling), ovalbumin (P1-196, rabbit; Thermo Fisher Scientific), human Fc (ab977225, rabbit; Abcam), Myc tag (2272, rabbit; Cell Signaling), and biotin (5597, rabbit; Cell Signaling). IRE1α lumenal domain (mouse), XBP1s (rabbit), and pIRE1α (rabbit) antibodies were generated at Genentech. Secondary antibodies used were for mouse (715-035-150; The Jackson Laboratory) and rabbit (711-035-152; The Jackson Laboratory).

B1: ovalbumin: classical protein antigen ovalbumin (Sigma-Aldrich) (protein)
chain: MGSIGAASMEFCFDVFKELKVHHANENIFYCPIAIMSALAMVYLGAKDSTRTQINKVVRFDKLPGFGDSIEAQCGTSVNVHSSLRDILNQITKPNDVYSFSLASRLYAEERYPILPEYLQCVKELYRGGLEPINFQTAADQARELINSWVESQTNGIIRNVLQPSSVDSQTAMVLVNAIVFKGLWEKAFKDEDTQAMPFRVTEQESKPVQMMYQIGLFRVASMASEKMKILELPFASGTMSMLVLLPDEVSGLEQLESIINFEKLTEWTSSNVMEERKIKVYLPRMKMEEKYNLTSVLMAMGITDVFSSSANLSGISSAESLKISQAVHAAHAEINEAGREVVGSAEAGVDAASVSEEFRADHPFLFCIKHIATNAVLFFGRCVSP
time of peak IRE1α phosphorylation (4-h pulse, ovalbumin 500 μg/ml): 2 h
time of peak XBP1s protein (4-h pulse, ovalbumin 500 μg/ml): 2 to 4 h
IRE1α activation (GM-CSF + IL-4 BMDCs, immunoblot for XBP1s/pIRE1α, in words): concentration- and time-dependent activation of IRE1α; also recorded: much weaker IRE1α activation than did the potent pharmacological ER-stressor tunicamycin; also recorded: only IRE1α exhibited substantial activation
